Laboratory results reported in patent EP4814011A1 (Shanghai Huaota Biopharmaceutical Co., Ltd., dated 2026).

T1: Trypsin inhibitor type 1-S from Glycine max (Glycine max, UniProt P01070 25-205)
T1 construct: Amine coupled to a CM5 chip
T1 sequence (looked up): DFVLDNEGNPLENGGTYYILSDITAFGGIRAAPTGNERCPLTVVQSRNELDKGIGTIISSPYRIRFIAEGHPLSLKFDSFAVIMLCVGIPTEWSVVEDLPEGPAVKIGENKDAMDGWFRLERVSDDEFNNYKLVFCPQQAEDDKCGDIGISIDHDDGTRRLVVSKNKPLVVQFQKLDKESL


Columns and labels:
[1] = biological target: T2, human TSLP with His tag (ACRO, TSP-H52Ha) (human, UniProt Q969D9 29-159); assay: SPR, His-TSLP captured on anti-His CM5, antibody analyte
T2 construct: Bought protein; also called human TSLP antigens; Human TSLP (Acro, #TSP-H52Ha); not shown: His tag

[2] = biological target: T1, Trypsin inhibitor type 1-S from Glycine …; assay: SPR, protein coupled to CM5
[3] = biological target: T3, Lysozyme solution from chicken egg (chicken, UniProt P00698 19-147); assay: SPR, protein coupled to CM5
T3 construct: Amine coupled to a CM5 chip
T3 sequence (P00698 19-147 limits assumed): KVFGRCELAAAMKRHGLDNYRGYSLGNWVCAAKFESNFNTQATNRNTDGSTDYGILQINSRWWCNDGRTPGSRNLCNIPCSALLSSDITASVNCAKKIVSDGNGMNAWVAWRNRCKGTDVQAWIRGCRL

[4] = biological target: T4, monkey TSLP antigen (R127A, R130S) Protein, His Tag (ACRO, Cat#: TSP-C52H4) (monkey, UniProt A0A7N9CAT7 29-159); assay: SPR, His-TSLP captured on anti-His CM5, antibody analyte
T4 construct: Bought protein
T4 sequence (A0A7N9CAT7 entry or part of it R127A R130S R127A R130S limits assumed, form in doubt): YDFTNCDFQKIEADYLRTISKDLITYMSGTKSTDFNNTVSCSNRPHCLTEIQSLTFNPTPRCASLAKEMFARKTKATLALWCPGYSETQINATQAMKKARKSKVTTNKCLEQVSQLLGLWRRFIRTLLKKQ

[5] = biological target: Human TSLP (form and source not stated) (human, UniProt Q969D9 29-159, limits assumed); assay: cell-based or functional assay

Binder	Kd [1]	koff [1]	kon [1]	binding response (RU) [2]	binding response (RU) [3]	Kd [4]	koff [4]	kon [4]	TARC in PBMC supernatant (ELISA) [5]
900792 chimera (antibody, human IgG1, kappa, L234A L235A, V domains shown, Human-mouse chimera of clone 77E6; human IgG1 constant region with L234A and L235A (Eu), human kappa) VH: QVQLQQSGAELVRPGTSVKVSCKASGYAFTNYLIEWVKQRPGQGLEWIGVINPESGDTYYSEKFKGKATLTADKSSSTAYMQLSSLTSEDSAVYFCAKESLTGSSYDYWGQGTTLTVSS VL: DIQMTQSPASLSASVGESVTITCRASENIYSNLVWYQQKQGKSPQLLVYGARNLADGVPSRFSGSGSGTQFSLKINSLQPEDFGNYYCQHFYETPLTFGTGTKLEIKR	0.223 nM	0.000157 s⁻¹	703000 M⁻¹ s⁻¹	7.2 RU	2.1 RU	4.58 nM	0.0159 s⁻¹	3.47e+06 M⁻¹ s⁻¹	–
900792-huH2L2 (antibody, human IgG1, kappa, L234A L235A, V domains shown, Humanized) VH: QVQLVQSGAEVKKPGASVKVSCKASGYAFTNYLIEWVRQAPGQGLEWMGIINPESGDTYYAQKFQGRVTMTADKSTSTAYMELSSLRSEDSAVYFCAKESLTGSSYDYWGQGTTLTVSS VL: DIQMTQSPSSLSASVGDRVTITCRASENIYSNLVWYQQKPGKAPQLLVYGARNLQSGVPSRFSGSGSGTQFSLTISSLQPEDFATYYCQHFYETPLTFGTGTKLEIKR	0.172 nM	0.000126 s⁻¹	733000 M⁻¹ s⁻¹	6.8 RU	1.4 RU	5.06 nM	0.0165 s⁻¹	3.27e+06 M⁻¹ s⁻¹	~10 times better than Tezepelumab
900792-huH1L2 (antibody, human IgG1, kappa, L234A L235A, V domains shown, Humanized) VH: QVQLQQSGAEVKKPGASVKVSCKASGYAFTNYLIEWVRQAPGQGLEWIGVINPESGDTYYSEKFQGRVTLTADKSTSTAYMELSSLRSEDSAVYFCAKESLTGSSYDYWGQGTTLTVSS VL: DIQMTQSPSSLSASVGDRVTITCRASENIYSNLVWYQQKPGKAPQLLVYGARNLQSGVPSRFSGSGSGTQFSLTISSLQPEDFATYYCQHFYETPLTFGTGTKLEIKR	0.176 nM	0.000126 s⁻¹	713000 M⁻¹ s⁻¹	6 RU	2 RU	8.23 nM	0.00274 s⁻¹	333000 M⁻¹ s⁻¹	~10 times better than Tezepelumab
900792-huH3L1 (antibody, human IgG1, kappa, L234A L235A, V domains shown, Humanized) VH: QVQLQQSGAEVKKPGASVKVSCKASGYAFTNYLIEWVRQAPGQGLEWMGVINPESGDTYYSQKFQGRVTMTADKSTSTAYMELSSLRSEDSAVYFCAKESLTGSSYDYWGQGTTLTVSS VL: DIQMTQSPSSLSASVGDRVTITCRASENIYSNLVWYQQKPGKAPQLLVYGARNLADGVPSRFSGSGSGTQFSLTISSLQPEDFATYYCQHFYETPLTFGTGTKLEIKR	0.175 nM	0.000129 s⁻¹	737000 M⁻¹ s⁻¹	5.6 RU	0.9 RU	6.22 nM	0.0362 s⁻¹	5.82e+06 M⁻¹ s⁻¹	~10 times better than Tezepelumab
900792-huH1L3 (antibody, human IgG1, kappa, L234A L235A, V domains shown, Humanized) VH: QVQLQQSGAEVKKPGASVKVSCKASGYAFTNYLIEWVRQAPGQGLEWIGVINPESGDTYYSEKFQGRVTLTADKSTSTAYMELSSLRSEDSAVYFCAKESLTGSSYDYWGQGTTLTVSS VL: DIQMTQSPSSLSASVGDRVTITCRASENIYSNLVWYQQKPGKAPQLLIYGARNLQSGVPSRFSGSGSGTQFTLTISSLQPEDFATYYCQHFYETPLTFGTGTKLEIKR	0.0964 nM	7.02e-05 s⁻¹	728000 M⁻¹ s⁻¹	5.9 RU	1 RU	7.99 nM	0.00321 s⁻¹	402000 M⁻¹ s⁻¹	~10 times better than Tezepelumab
900792-huH2L1 (antibody, human IgG1, kappa, L234A L235A, V domains shown, Humanized) VH: QVQLVQSGAEVKKPGASVKVSCKASGYAFTNYLIEWVRQAPGQGLEWMGIINPESGDTYYAQKFQGRVTMTADKSTSTAYMELSSLRSEDSAVYFCAKESLTGSSYDYWGQGTTLTVSS VL: DIQMTQSPSSLSASVGDRVTITCRASENIYSNLVWYQQKPGKAPQLLVYGARNLADGVPSRFSGSGSGTQFSLTISSLQPEDFATYYCQHFYETPLTFGTGTKLEIKR	0.141 nM	0.00011 s⁻¹	782000 M⁻¹ s⁻¹	6.9 RU	0.8 RU	3.82 nM	0.0122 s⁻¹	3.19e+06 M⁻¹ s⁻¹	~10 times better than Tezepelumab
900792-huH2L3 (antibody, human IgG1, kappa, L234A L235A, V domains shown, Humanized) VH: QVQLVQSGAEVKKPGASVKVSCKASGYAFTNYLIEWVRQAPGQGLEWMGIINPESGDTYYAQKFQGRVTMTADKSTSTAYMELSSLRSEDSAVYFCAKESLTGSSYDYWGQGTTLTVSS VL: DIQMTQSPSSLSASVGDRVTITCRASENIYSNLVWYQQKPGKAPQLLIYGARNLQSGVPSRFSGSGSGTQFTLTISSLQPEDFATYYCQHFYETPLTFGTGTKLEIKR	0.172 nM	0.000126 s⁻¹	733000 M⁻¹ s⁻¹	6.8 RU	5.9 RU	5.88 nM	0.0189 s⁻¹	3.22e+06 M⁻¹ s⁻¹	~10 times better than Tezepelumab

Results, then the binder that gave them:

Kd [1]	koff [1]	kon [1]	binding response (RU) [2]	binding response (RU) [3]	Kd [4]	koff [4]	kon [4]	TARC in PBMC supernatant (ELISA) [5]	Binder
0.189 nM	0.000143 s⁻¹	755000 M⁻¹ s⁻¹	8.7 RU	1.9 RU	6.01 nM	0.087 s⁻¹	1.45e+07 M⁻¹ s⁻¹	~10 times better than Tezepelumab	900792-huH3L3 (antibody, human IgG1, kappa, L234A L235A, V domains shown, Humanized) VH: QVQLQQSGAEVKKPGASVKVSCKASGYAFTNYLIEWVRQAPGQGLEWMGVINPESGDTYYSQKFQGRVTMTADKSTSTAYMELSSLRSEDSAVYFCAKESLTGSSYDYWGQGTTLTVSS VL: DIQMTQSPSSLSASVGDRVTITCRASENIYSNLVWYQQKPGKAPQLLIYGARNLQSGVPSRFSGSGSGTQFTLTISSLQPEDFATYYCQHFYETPLTFGTGTKLEIKR
0.234 nM	0.000174 s⁻¹	743000 M⁻¹ s⁻¹	8.6 RU	3.3 RU	3.99 nM	0.013 s⁻¹	3.27e+06 M⁻¹ s⁻¹	~10 times better than Tezepelumab	900792-huH4L2 (antibody, human IgG1, kappa, L234A L235A, V domains shown, Humanized) VH: QVQLVQSGAEVKKPGASVKVSCKASGYAFTNYLIEWVRQAPGQGLEWMGIINPESGDTYYAQKFQGRVTLTADKSTSTAYMELSSLRSEDSAVYYCAKESLTGSSYDYWGQGTTLTVSS VL: DIQMTQSPSSLSASVGDRVTITCRASENIYSNLVWYQQKPGKAPQLLVYGARNLQSGVPSRFSGSGSGTQFSLTISSLQPEDFATYYCQHFYETPLTFGTGTKLEIKR
0.126 nM	9.45e-05 s⁻¹	748000 M⁻¹ s⁻¹	5.7 RU	1.8 RU	8.16 nM	0.00339 s⁻¹	416000 M⁻¹ s⁻¹	~10 times better than Tezepelumab	900792-huH1L1 (antibody, human IgG1, kappa, L234A L235A, V domains shown, Humanized) VH: QVQLQQSGAEVKKPGASVKVSCKASGYAFTNYLIEWVRQAPGQGLEWIGVINPESGDTYYSEKFQGRVTLTADKSTSTAYMELSSLRSEDSAVYFCAKESLTGSSYDYWGQGTTLTVSS VL: DIQMTQSPSSLSASVGDRVTITCRASENIYSNLVWYQQKPGKAPQLLVYGARNLADGVPSRFSGSGSGTQFSLTISSLQPEDFATYYCQHFYETPLTFGTGTKLEIKR
0.131 nM	0.000108 s⁻¹	822000 M⁻¹ s⁻¹	8.1 RU	1.5 RU	5.05 nM	0.0327 s⁻¹	6.47e+06 M⁻¹ s⁻¹	~10 times better than Tezepelumab	900792-huH3L2 (antibody, human IgG1, kappa, L234A L235A, V domains shown, Humanized) VH: QVQLQQSGAEVKKPGASVKVSCKASGYAFTNYLIEWVRQAPGQGLEWMGVINPESGDTYYSQKFQGRVTMTADKSTSTAYMELSSLRSEDSAVYFCAKESLTGSSYDYWGQGTTLTVSS VL: DIQMTQSPSSLSASVGDRVTITCRASENIYSNLVWYQQKPGKAPQLLVYGARNLQSGVPSRFSGSGSGTQFSLTISSLQPEDFATYYCQHFYETPLTFGTGTKLEIKR
0.117 nM	8.15e-05 s⁻¹	694000 M⁻¹ s⁻¹	9.6 RU	4 RU	4.17 nM	0.00873 s⁻¹	2.09e+06 M⁻¹ s⁻¹	~10 times better than Tezepelumab	900792-huH4L1 (antibody, human IgG1, kappa, L234A L235A, V domains shown, Humanized) VH: QVQLVQSGAEVKKPGASVKVSCKASGYAFTNYLIEWVRQAPGQGLEWMGIINPESGDTYYAQKFQGRVTLTADKSTSTAYMELSSLRSEDSAVYYCAKESLTGSSYDYWGQGTTLTVSS VL: DIQMTQSPSSLSASVGDRVTITCRASENIYSNLVWYQQKPGKAPQLLVYGARNLADGVPSRFSGSGSGTQFSLTISSLQPEDFATYYCQHFYETPLTFGTGTKLEIKR
0.157 nM	0.000121 s⁻¹	771000 M⁻¹ s⁻¹	6.6 RU	2.4 RU	4.18 nM	0.00989 s⁻¹	2.37e+06 M⁻¹ s⁻¹	~10 times better than Tezepelumab	900792-huH4L3 (antibody, human IgG1, kappa, L234A L235A, V domains shown, Humanized) VH: QVQLVQSGAEVKKPGASVKVSCKASGYAFTNYLIEWVRQAPGQGLEWMGIINPESGDTYYAQKFQGRVTLTADKSTSTAYMELSSLRSEDSAVYYCAKESLTGSSYDYWGQGTTLTVSS VL: DIQMTQSPSSLSASVGDRVTITCRASENIYSNLVWYQQKPGKAPQLLIYGARNLQSGVPSRFSGSGSGTQFTLTISSLQPEDFATYYCQHFYETPLTFGTGTKLEIKR
